A word on the stoichiometry N: it is a count of units in the complex or per binding partner.

The data set deals with the molecule itself. Briefly: SEC; HiLoad 16/600 Superdex 200, Tris buffer (50 mM, pH 8.0, 150 mM NaCl), calibrated with proteins of known mass; final purification step.

B1: Human glutathione transferase M1-1 (hGST M1-1) (enzyme, UniProt P09488 1-218, looked up)
chain: MPMILGYWDIRGLAHAIRLLLEYTDSSYEEKKYTMGDAPDYDRSQWLNEKFKLGLDFPNLPYLIDGAHKITQSNAILCYIARKHNLCGETEEEKIRVDILENQTMDNHMQLGMICYNPEFEKLKPKYLEELPEKLKLYSEFLGKRPWFAGNKITFVDFLVYDVLDLHRIFEPKCLDAFPNLKDFISRFEGLEKISAYMKSSRFLPRPVFSKMAVWGNK
notes: Human glutathione transferase M1 (mu class), ORF of GenBank X08020.1; purified without tags; Homodimer; In the crystal it carries the small-molecule adduct GS-10-NO2-OA in the active site; source: E. coli BL21(DE3), pET22b, purified (GSH-Sepharose, SEC)
On to B1, for which the “stoichiometry N” value was 2.

B2: Human glutathione transferase A4-4 (hGST A4-4) (enzyme, UniProt O15217 1-222, looked up)
chain: MAARPKLHYPNGRGRMESVRWVLAAAGVEFDEEFLETKEQLYKLQDGNHLLFQQVPMVEIDGMKLVQTRSILHYIADKHNLFGKNLKERTLIDMYVEGTLDLLELLIMHPFLKPDDQQKEVVNMAQKAIIRYFPVFEKILRGHGQSFLVGNQLSLADVILLQTILALEEKIPNILSAFPFLQEYTVKLSNIPTIKRFLEPGSKKKPPPDEIYVRTVYNIFRP
notes: Human glutathione transferase A4 (alpha class), ORF of GenBank Y13047.1; Homodimer; Expressed as a C-terminal fusion to His-tagged Trx1 with a TEV site in between; the fusion partner was cut off; the printed mass (25,761 Da) may include such a remnant (surmise); source: E. coli BL21(DE3), pET-Trx1b, purified (GSH-Sepharose, TEV cleavage, HisTrap flow through, SEC); not shown: His tag, N-terminal, …
As to B2, the “stoichiometry N” value came to 2.

(Values after PMC11999266, “Human glutathione transferases catalyze the reaction between glutathione and nitrooleic acid” (The Journal of Biological Chemistry, 2025).)
